The record followed here is patent US20230151091A1 (NEW YORK UNIVERSITY, published 2023).

The target in assay [1] is T1, hFz: Fz domain and C-terminal flanking sequence of human MuSK (K314-T495) with C-terminal Avi- and His6-tags (human, UniProt O15146 314-495, biotinylated in vitro using the BirA enzyme).
T1 construct: also called human Fz; not shown: Avi- and His6-tags
T1 sequence: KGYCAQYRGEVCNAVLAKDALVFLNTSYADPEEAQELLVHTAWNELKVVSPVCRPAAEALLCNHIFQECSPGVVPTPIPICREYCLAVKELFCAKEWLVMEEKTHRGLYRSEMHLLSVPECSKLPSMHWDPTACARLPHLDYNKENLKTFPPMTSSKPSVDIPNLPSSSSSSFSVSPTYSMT
The assay can be described thus: bead-binding assay, Fab format: biotinylated antigen on streptavidin beads, flow cytometry, 1:1 fit; average ± s.d., n=3. (A flow cytometer gives signals particle by particle.)

The target of assay [2] is T2, mFz: Fz domain and C-terminal flanking sequence of mouse MuSK (D307 to T494) with C-terminal Avi- and … (mouse, UniProt Q61006 307-494, limits assumed, biotinylated in vitro using the BirA enzyme).
T2 construct: also called mouse Fz; not shown: Avi- and His6-tags
T2 sequence (looked up): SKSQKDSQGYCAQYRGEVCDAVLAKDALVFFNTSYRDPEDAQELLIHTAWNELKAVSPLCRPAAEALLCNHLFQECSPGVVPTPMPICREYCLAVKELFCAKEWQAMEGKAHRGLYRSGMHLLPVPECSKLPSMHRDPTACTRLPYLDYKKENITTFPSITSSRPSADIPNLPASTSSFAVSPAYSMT
Described as above.

The target of assay [3] is T3, hECD: full-length extracellular region of human MuSK (E22 to T495) with C-terminal Avi- and His6-tags (human, UniProt O15146 22-495, biotinylated in vitro using the BirA enzyme).
T3 construct: also called human ECD; not shown: Avi- and His6-tags
T3 sequence: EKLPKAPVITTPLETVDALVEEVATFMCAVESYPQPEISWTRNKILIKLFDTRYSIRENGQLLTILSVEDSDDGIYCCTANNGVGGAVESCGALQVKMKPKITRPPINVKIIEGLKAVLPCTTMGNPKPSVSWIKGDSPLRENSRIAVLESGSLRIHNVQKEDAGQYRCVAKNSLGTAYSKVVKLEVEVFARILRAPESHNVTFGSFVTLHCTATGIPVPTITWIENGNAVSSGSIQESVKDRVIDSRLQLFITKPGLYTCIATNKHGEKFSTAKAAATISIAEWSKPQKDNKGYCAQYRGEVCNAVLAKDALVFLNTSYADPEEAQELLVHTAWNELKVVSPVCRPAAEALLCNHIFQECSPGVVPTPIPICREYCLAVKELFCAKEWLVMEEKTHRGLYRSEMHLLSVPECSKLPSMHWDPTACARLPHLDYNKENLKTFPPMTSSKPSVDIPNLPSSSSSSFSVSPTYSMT
The assay is described as above.

The target of assay [4] is T4, mECD: full-length extracellular region of mouse MuSK (E22 to T494) with C-terminal Avi- and His6-tags (mouse, UniProt Q61006 22-494, biotinylated in vitro using the BirA enzyme).
T4 construct: range 22-494; also called mouse ECD; not shown: Avi- and His6-tags
T4 sequence (looked up): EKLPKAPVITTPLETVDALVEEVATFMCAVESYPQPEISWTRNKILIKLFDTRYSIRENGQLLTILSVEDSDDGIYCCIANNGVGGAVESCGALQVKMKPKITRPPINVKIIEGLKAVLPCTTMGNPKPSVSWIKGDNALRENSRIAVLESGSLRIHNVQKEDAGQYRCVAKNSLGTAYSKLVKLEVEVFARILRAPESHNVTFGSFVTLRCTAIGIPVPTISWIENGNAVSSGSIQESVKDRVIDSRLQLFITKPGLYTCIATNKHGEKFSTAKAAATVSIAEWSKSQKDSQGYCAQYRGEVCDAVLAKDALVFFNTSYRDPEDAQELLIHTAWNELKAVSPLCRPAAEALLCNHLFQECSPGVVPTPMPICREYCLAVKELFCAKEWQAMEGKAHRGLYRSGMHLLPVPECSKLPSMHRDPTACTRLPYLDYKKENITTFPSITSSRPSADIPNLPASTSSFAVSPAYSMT
The description is as above.

The target of assay [5] is T5, rat MuSK (rat, UniProt Q62838 22-494, limits assumed).
T5 construct: Coated on Biacore chip (200RU) or ELISA plate
T5 sequence (looked up): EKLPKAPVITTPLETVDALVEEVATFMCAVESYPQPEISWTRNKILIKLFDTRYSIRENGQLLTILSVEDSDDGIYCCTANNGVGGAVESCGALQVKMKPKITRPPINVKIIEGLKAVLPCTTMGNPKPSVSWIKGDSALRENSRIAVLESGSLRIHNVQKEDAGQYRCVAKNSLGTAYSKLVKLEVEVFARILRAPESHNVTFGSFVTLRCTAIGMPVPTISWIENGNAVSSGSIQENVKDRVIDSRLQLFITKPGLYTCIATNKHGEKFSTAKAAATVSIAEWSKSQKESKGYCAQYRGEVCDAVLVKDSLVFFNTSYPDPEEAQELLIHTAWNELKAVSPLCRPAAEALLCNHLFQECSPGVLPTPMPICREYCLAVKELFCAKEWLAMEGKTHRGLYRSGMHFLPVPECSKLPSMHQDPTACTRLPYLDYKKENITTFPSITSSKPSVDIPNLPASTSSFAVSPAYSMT
The assay can be described thus: Biacore, MuSK on chip, association pH 7.4, dissociation pH 5.5. As to the method:
(§1) For affinity determination, a CMS chip was coated with cynomolgus monkey, rat and mouse MuSK (200RU) and 66.7 nM of antibody was applied and kinetic parameters calculated (Table 8). The following conclusions could be drawn: (1) 3B2g1m3 and 3B2g2m3 (m3 variants) show significant drop in affinity for MuSK for all species tested; (2) 3B2g1m2 and 3B2g2m2 (m2 variants) show some drop in affinity for MuSK; (3) 3B2g1m1, 3B2g2m1, 3B2g1m4, 3B2g2m4 (ml and m4 variants) show no drop in affinity for MuSK for all species tested; and (4) for all clones there is no difference between g1 and g2 variants (VL methionine versus serine in CDR3).
(§2) In order to study pH dependent binding of our antibodies to MuSK, the same Biacore was used as above, but now dissociation was done at pH 5.5 instead of pH 7.4. […] The following conclusions could be drawn for the different variants: (1) 3B2g1m3 and 3B2g2m3 (m3 variants) show significant drop in affinity for MuSK for all species tested; (2) 3B2g1m2 and 3B2g2m2 (m2 variants) show some drop in affinity for MuSK; (3) 3B2g1m1, 3B2g2m1, 3B2g1m4, 3B2g2m4 (m1 and m4 variants) show no drop in affinity for MuSK for all species tested; and (4) for all clones there is no difference between g1 and g2 variants (VL methionine versus serine in CDR3).
In general terms: Surface plasmon resonance follows binding to a sensor surface in real time, without labels.

Assay [6] addresses T6, cynomolgus monkey MuSK (cynomolgus monkey, UniProt A0A2K5USF6 24-487). Described as above. As to the method:
as §1, §2

The target in assay [7] is T7, mouse MuSK (mouse, UniProt Q61006 22-494, limits assumed).
T7 construct: Coated on ELISA plates or on the Biacore chip; also called full length mouse MuSK; mouse MuSK (in house produced in HEK293 cells)
T7 sequence (looked up): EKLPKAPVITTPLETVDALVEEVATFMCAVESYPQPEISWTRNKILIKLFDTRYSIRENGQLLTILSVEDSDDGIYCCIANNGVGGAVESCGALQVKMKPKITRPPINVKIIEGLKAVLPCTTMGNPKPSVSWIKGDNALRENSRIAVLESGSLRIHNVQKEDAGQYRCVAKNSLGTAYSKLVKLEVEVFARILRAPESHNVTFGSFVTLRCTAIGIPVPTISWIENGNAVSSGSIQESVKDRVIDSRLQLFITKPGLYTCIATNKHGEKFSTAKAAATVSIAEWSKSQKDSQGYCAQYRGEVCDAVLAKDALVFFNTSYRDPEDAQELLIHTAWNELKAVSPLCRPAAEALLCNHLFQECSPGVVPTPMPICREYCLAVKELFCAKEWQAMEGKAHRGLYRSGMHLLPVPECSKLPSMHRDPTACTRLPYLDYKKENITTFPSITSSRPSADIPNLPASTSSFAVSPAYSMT
Described as above. As to the method: as §1, §2

Assay [8] has as its target T5, rat MuSK. The assay can be described thus: Biacore, MuSK on chip (200RU), 66.7 nM mAb, dissociation pH 7.4. As to the method:
as §1

Assay [9] has as its target T6, cynomolgus monkey MuSK. The description is as above. How it is done:
as §1

Assay [10] concerns the target T7, mouse MuSK. The assay is described as above. How it is done: as §1

By Kd is commonly meant a measure of binding affinity in units of concentration. As a reminder, the koff is the rate constant with which the complex falls apart. The term kon denotes the rate constant with which the complex forms.

T6 sequence (A0A2K5USF6 entry or part of it): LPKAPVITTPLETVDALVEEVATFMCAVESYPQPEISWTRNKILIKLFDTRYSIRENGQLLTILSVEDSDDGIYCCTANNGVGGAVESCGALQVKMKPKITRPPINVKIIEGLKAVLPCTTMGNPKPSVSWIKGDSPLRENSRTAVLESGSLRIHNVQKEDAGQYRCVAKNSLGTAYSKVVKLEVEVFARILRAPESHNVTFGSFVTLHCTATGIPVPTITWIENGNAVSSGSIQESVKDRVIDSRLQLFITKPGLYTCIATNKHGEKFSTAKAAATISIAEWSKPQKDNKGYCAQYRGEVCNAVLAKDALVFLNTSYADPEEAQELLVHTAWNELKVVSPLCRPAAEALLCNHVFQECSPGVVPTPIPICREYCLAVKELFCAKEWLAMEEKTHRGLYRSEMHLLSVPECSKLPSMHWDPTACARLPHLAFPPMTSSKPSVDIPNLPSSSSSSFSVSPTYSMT

B1: X8 Fab (Fab, V domains shown)
VH: EVQLVESGGGLVQPGGSLRLSCAASGFTVSSSSIHWVRQAPGKGLEWVASISSSSGSTSYADSVKGRFTISADTSKNTAYLQMNSLRAEDTAVYYCARSWSYHPWYYHVGWYTGLDYWGQGTLVTVSS
VL: DIQMTQSPSSLSASVGDRVTITCRASQSVSSAVAWYQQKPGKAPKLLIYSASSLYSGVPSRFSGSRSGTDFTLTISSLQPEDFATYYCQQSSSSLITFGQGTKVEIK
notes: also called Fab Clone X8
With B1, the dissociation constant (Kd) in [1] was 1.4 nM; in assay [2], 4.7 nM; in assay [3] it was 1.69 nM; in assay [4], 44 nM.

B2: 3B2g2m1 (antibody, human IgG1, V domains shown)
VH: EVQLLESGGGLVQPGGSLRLSCAASGFTFSDYGMSWVRQAPGKGLEWVSAIPWSGGSTYYKESVKGRFTISRDNSKNTLYLQMNSLRAEDTAVYYCAKRSGRIAFGALDAWGQGTLVTVSS
VL: QTVVTQEPSFSVSPGGTVTLTCGLSSGSVTSSNYPDWYQQTPGQAPRTLIYSTDSRHSGVPDRFSGSILGNKAALTITGAQADDESDYYCGLYSYSGSKNYVFGGGTKLTVL
notes: human IgG1-LALA backbone; produced in HEK293 cells; also called MuSK agonist antibody 3B2g2m1; MuSK-mAb 3B2g2m1
Consider B2, for which the R0 with rat MuSK [5] worked out at 174 RU; with cynomolgus monkey MuSK [6] it was 151 RU; with mouse MuSK [7], 193 RU; in the assay with rat MuSK [8], 160 RU; in the assay with cynomolgus monkey MuSK [9], 144 RU; with mouse MuSK [10], 195 RU. In addition, the koff came to 0.00555 s⁻¹ with rat MuSK [5]; 0.00288 s⁻¹ with cynomolgus monkey MuSK [6]; 0.00339 s⁻¹ with mouse MuSK [7]; 0.00193 s⁻¹ with rat MuSK [8]; 0.00109 s⁻¹ with cynomolgus monkey MuSK [9]; 0.00104 s⁻¹ with mouse MuSK [10]. For the same molecule, the kon with rat MuSK [5] worked out at 1.15e+06 M⁻¹ s⁻¹; with cynomolgus monkey MuSK [6], 850000 M⁻¹ s⁻¹; with mouse MuSK [7] it was 1.18e+06 M⁻¹ s⁻¹; with rat MuSK [8] it was 1.4e+06 M⁻¹ s⁻¹; with cynomolgus monkey MuSK [9] it was 890000 M⁻¹ s⁻¹; with mouse MuSK [10] it was 1.32e+06 M⁻¹ s⁻¹.

B3: 3B2g1m1 (antibody, human IgG1, V domains shown)
VH: EVQLLESGGGLVQPGGSLRLSCAASGFTFSDYGMSWVRQAPGKGLEWVSAIPWSGGSTYYKESVKGRFTISRDNSKNTLYLQMNSLRAEDTAVYYCAKRSGRIAFGALDAWGQGTLVTVSS
VL: QTVVTQEPSFSVSPGGTVTLTCGLSSGSVTSSNYPDWYQQTPGQAPRTLIYSTDSRHSGVPDRFSGSILGNKAALTITGAQADDESDYYCGLYMYSGSKNYVFGGGTKLTVL
notes: human IgG1-LALA backbone; produced in HEK293 cells
On to B3, for which the R0 was determined as 166 RU with rat MuSK [5]; 147 RU in the assay with cynomolgus monkey MuSK [6]; 192 RU with mouse MuSK [7]; 157 RU with rat MuSK [8]; 143 RU with cynomolgus monkey MuSK [9]; 193 RU with mouse MuSK [10]. Besides, the dissociation rate constant (koff) with rat MuSK [5] amounted to 0.00595 s⁻¹; in the assay with cynomolgus monkey MuSK [6] it was 0.0029 s⁻¹; with mouse MuSK [7], 0.00339 s⁻¹; with rat MuSK [8], 0.00192 s⁻¹; with cynomolgus monkey MuSK [9] it was 0.00117 s⁻¹; with mouse MuSK [10], 0.0011 s⁻¹. For the same molecule, the kon with rat MuSK [5] came to 1.16e+06 M⁻¹ s⁻¹; with cynomolgus monkey MuSK [6], 810000 M⁻¹ s⁻¹; in the assay with mouse MuSK [7] it was 1.19e+06 M⁻¹ s⁻¹; with rat MuSK [8], 1.32e+06 M⁻¹ s⁻¹; with cynomolgus monkey MuSK [9], 840000 M⁻¹ s⁻¹; with mouse MuSK [10] it was 1.25e+06 M⁻¹ s⁻¹.

B4: X7 Fab (Fab, V domains shown)
VH: EVQLVESGGGLVQPGGSLRLSCAASGFTLYSSSIHWVRQAPGKGLEWVASISSSYSSTYYADSVKGRFTISADTSKNTAYLQMNSLRAEDTAVYYCARLAGLYHYPGYLGLDYWGQGTLVTVSS
VL: DIQMTQSPSSLSASVGDRVTITCRASQSVSSAVAWYQQKPGKAPKLLIYSASSLYSGVPSRFSGSRSGTDFTLTISSLQPEDFATYYCQQSSRSSLLTFGQGTKVEIK
notes: also called Fab Clone X7
Take B4: the dissociation constant Kd in assay [1] was determined as 4.5 nM; in assay [2], 12 nM; in assay [3] it was 6 nM; in assay [4] it was 16.2 nM.
